The text below walks through data of patent publication US7588931B2, “High arachidonic acid producing strains of Yarrowia lipolytica” (E. I. du Pont de Nemours and Company, priority 2004, dated 2009).

What all share (type): cell-based, Yarrowia lipolytica
One series has as its system GUS mRNA. The series is described as follows: Comparative analysis of promoters by quantitative (Real Time) PCR of GUS mRNA. The following applies: for transcription activity relative to the TEF promoter: after 24 hrs in HGM, ATCC #76982 strains. Here is the method:
The transcriptional activities of the TEF, GPD, GPDIN, FBA and FBAIN promoters were determined in Y. lipolytica containing the pY5-30, PYZGDG, pDMW222, pDMW212 and pDMW214 constructs by quantitative PCR analyses. This required isolation of RNA and real time RT-PCR.
More specifically, Y. lipolytica ATCC #76982 strains containing pY5-30, PYZGDG, pDMW222, pDMW212 and pDMW214 were grown from single colonies in 6 mL of MM in 25 mL Erlenmeyer flasks for 16 hrs at 30° C. Each of the 6 mL starter cultures was then added to individual 500 mL flasks containing 140 mL HGM and incubated at 30° C. for 4 days. In each interval of 24 hrs, 1 mL of each culture was removed from each flask to measure the optical density, 27 mL was removed and used for a fluorometric GUS assay (as described above), and two aliquots of 1.5 mL were removed for RNA isolation. The culture for RNA isolation was centrifuged to produce a cell pellet.
The RNA was isolated from Yarrowia strains according to the modified Qiagen RNeasy mini protocol (Qiagen, San Diego, Calif.). Briefly, at each time point for each sample, 340 μL of Qiagen's buffer RLT was used to resuspend each of the two cell pellets. The buffer RLT/cell suspension mixture from each of the two tubes was combined in a bead beating tube (Bio101, San Diego, Calif.). About 500 μL of […] glass beads was added to the tube and the cells were disrupted by bead beating 2 min at setting 5 (BioPulverizer, Bio101 Company, San Diego, Calif.). The disrupted cells were then pelleted by centrifugation at 14,000 rpm for 1 min and 350 μl of the supernatent was transferred to a new microcentrifuge tube. Ethanol (350 μL of 70%) was added to each homogenized lysate. After gentle mixing, the entire sample was added to a RNeasy mini column in a 2 mL collection tube. The sample was centrifuged for 15 sec at 10,000 rpm. Buffer RW1 (350 μL) was added to the RNeasy mini column and the column was centrifuged for 15 sec at 10,000 rpm to wash the cells. The eluate was discarded. Qiagen's DNasel stock solution (10 μL) was added to 70 μl of Buffer RDD and gently mixed. This entire DNase solution was added to the RNeasy mini column and incubated at room temperature for 15 min. After the incubation step, 350 μL of Buffer RW1 was added to the mini column and the column was centrifuged for 15 sec at 10,000 rpm. The column was washed twice with 700 μL […]. RNase-free water (50 μL) was added to the column. The column was centrifuged for 1 min at 10,000 rpm to elute the RNA.
A two-step RT-PCR protocol was used, wherein total Yarrowia RNA was first converted to cDNA and then cDNA was analyzed using Real Time PCR. The conversion to cDNA was performed using Applied Biosystems' High Capacity cDNA Archive Kit (PN#4322171; Foster City, Calif.) and Molecular Biology Grade water from MediaTech, Inc. (PN# 46-000-Con; Holly Hill, Fla.). Total RNA from Yarrowia (100 ng) was converted to cDNA by combining it with 10 μl of RT buffer, 4 μl of 25×dNTPs, 10 μl 10× Random Hexamer primers, 5 μl Multiscribe Reverse Transcriptase and 0.005 μl RNase Inhibitor, and brought to a total reaction volume of 100 μl with water. The reactions were incubated in a thermocycler for 10 min at 25° C. followed by 2 hrs at 37° C. The cDNA was stored at −20° C. prior to Real Time analysis.
Real Time analysis was performed using the SYBR Green PCR Master Mix from Applied Biosystems (PN# 4309155). The Reverse Transcription reaction (2 μl) was added to 10 μl of 2×SYBR PCR Mix, 0.2 μl of 100 μM Forward and Reverse primers for either URA (i.e., primers YL-URA-16F and YL-URA-78R [SEQ ID NOs:183 and 184]) or GUS (i.e., primers GUS-767F and GUS-891R [SEQ ID NO:185 and 186]) and 7.2 μl water. The reactions were thermocycled for 10 min at 95° C. followed by 40 cycles of 95° C. for 5 sec and 60° C. for 1 min in an ABI 7900 Sequence Detection System instrument. Real time fluorescence data was collected during the 60° C. extension during each cycle. […]

In series [1] the test system is β-glucuronidase (GUS) reporter. The series can be described thus: Comparative analysis of promoters by histochemical analysis of GUS expression. The following applies: ATCC #76982 strains, MM, FIG. 5B. The protocol: Comparative studies investigating the promoter activities of the TEF, GPD, GPDIN, GPM, GPAT, FBA, FBAIN and YAT1 promoters were performed, by synthesizing constructs comprising each promoter and the E. coli gene encoding β-glucuronidase (GUS) as a reporter gene (Jefferson, R. A. Nature. 14(342):837-838 (1989)). Then, GUS activity was measured by histochemical and fluorometric assays (Jefferson, R. A. Plant Mol. Biol. Reporter 5:387-405 (1987)) and/or by using Real Time PCR for mRNA quantitation.
Yarrowia lipolytica ATCC #76982 strains containing plasmids pY5-30, pYZGDG, pYZGMG, pDMW212 and pDMW214 were grown from single colonies in 3 mL MM at 30° C. to an OD600˜1.0. Then, 100 μl of cells were collected by centrifugation, resuspended in 100 μl of histochemical staining buffer, and incubated at 30° C. Staining buffer was prepared by dissolving 5 mg of 5-bromo-4-chloro-3-indolyl glucuronide (X-Gluc) in 50 μl dimethyl formamide, followed by the addition of 5 mL 50 mM NaPO4, pH 7.0.
In a separate experiment, Y. lipolytica Y2034 strains containing plasmids pY5-30, pYGPAT-GUS, pYAT-GUS and pDMW214 were grown from single colonies in 5 mL SD media at 30° C. for 24 hrs to an OD600˜8.0. Then, 1 mL of cells were collected by centrifugation. The remaining cultures were centrifuged and washed 2× with HGM, resuspended in 5 mL each of HGM and allowed to grow at 30° C. further. After 24 and 120 hrs, ˜0.25 mL of each culture were centrifuged to collect the cells. Cell samples were resuspended individually in 100 μl of histochemical staining buffer (supra). Zymolase 20T (5 μl of 1 mg/mL; ICN Biomedicals, Costa Mesa, Calif.) was added to each, and the mixture incubated at 30° C. […]

In series [2] the test system is β-glucuronidase (GUS) reporter. The series can be described thus: Relative promoter activity rank from comparative GUS reporter studies (histochemical, fluorometric and/or Real Time PCR). To be noted: relative to other promoters. A digest of the protocol:
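GUS activity from each promoter construct was measured by histochemical and/or fluorometric assays and/or Real Time PCR. Promoters were ranked relative to one another, from 1 (lowest activity) to 7 (highest activity).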
A general note: Quantitative PCR measures a nucleic acid by following its amplification.

B1: GPD: Y. lipolytica glyceraldehyde-3-phosphate dehydrogenase promoter, SEQ ID NO:158 (nucleic acid, listed as Yarrowia lipolytica)
DNA: GACGCAGTAGGATGTCCTGCACGGGTCTTTTTGTGGGGTGTGGAGAAAGGGGTGCTTGGAGATGGAAGCCGGTAGAACCGGGCTGCTTGTGCTTGGAGATGGAAGCCGGTAGAACCGGGCTGCTTGGGGGGATTTGGGGCCGCTGGGCTCCAAAGAGGGGTAGGCATTTCGTTGGGGTTACGTAATTGCGGCATTTGGGTCCTGCGCGCATGTCCCATTGGTCAGAATTAGTCCGGATAGGAGACTTATCAGCCAATCACAGCGCCGGATCCACCTGTAGGTTGGGTTGGGTGGGAGCACCCCTCCACAGAGTAGAGTCAAACAGCAGCAGCAACATGATAGTTGGGGGTGTGCGTGTTAAAGGAAAAAAAAGAAGCTTGGGTTATATTCCCGCTCTATTTAGAGGTTGCGGGATAGACGCCGACGGAGGGCAATGGCGCCATGGAACCTTGCGGATATCGATACGCCGCGGCGGACTGCGTCCGAACCAGCTCCAGCAGCGTTTTTTCCGGGCCATTGAGCCGACTGCGACCCCGCCAACGTGTCTTGGCCCACGCACTCATGTCATGTTGGTGTTGGGAGGCCACTTTTTAAGTAGCACAAGGCACCTAGCTCGCAGCAAGGTGTCCGAACCAAAGAAGCGGCTGCAGTGGTGCAAACGGGGCGGAAACGGCGGGAAAAAGCCACGGGGGCACGAATTGAGGCACGCCCTCGAATTTGAGACGAGTCACGGCCCCATTCGCCCGCGCAATGGCTCGCCAACGCCCGGTCTTTTGCACCACATCAGGTTACCCCAAGCCAAACCTTTGTGTTAAAAAGCTTAACATATTATACCGAACGTAGGTTTGGGCGGGCTTGCTCCGTCTGTCCAAGGCAACATTTATATAAGGGTCTGCATCGCCGGCTCAATTGAATCTTTTTTCTTCTTCTCTTCTCTATATTCATTCTTGAATTAAACACACATCAACATG
modifications: misc_feature: Promoter GPD
Turning to B1, the “transcription activity relative to the TEF promoter” value in the series with GUS mRNA was “about 2 times”. In series [1], the “promoter activity by histochemical staining” value is “active”. In addition, in series [2], the “Activity “Rank”” value is 2.

B2: GPDIN: glyceraldehyde-3-phosphate dehydrogenase + intron promoter, SEQ ID NO:159 (nucleic acid, listed as Yarrowia lipolytica)
DNA: AAACACGCAGTAGGATGTCCTGCACGGGTCTTTTTGTGGGGTGTGGAGAAAGGGGTGCTTGGAGATGGAAGCCGGTAGAACCGGGCTGCTTGTGCTTGGAGATGGAAGCCGGTAGAACCGGGCTGCTTGGGGGGATTTGGGGCCGCTGGGCTCCAAAGAGGGGTAGGCATTTCGTTGGGGTTACGTAATTGCGGCATTTGGGTCCTGCGCGCATGTCCCATTGGTCAGAATTAGTCCGGATAGGAGACTTATCAGCCAATCACAGCGCCGGATCCACCTGTAGGTTGGGTTGGGTGGGAGCACCCCTCCACAGAGTAGAGTCAAACAGCAGCAGCAACATGATAGTTGGGGGTGTGCGTGTTAAAGGAAAAAAAAGAAGCTTGGGTTATATTCCCGCTCTATTTAGAGGTTGCGGGATAGACGCCGACGGAGGGCAATGGCGCTATGGAACCTTGCGGATATCCATACGCCGCGGCGGACTGCGTCCGAACCAGCTCCAGCAGCGTTTTTTCCGGGCCATTGAGCCGACTGCGACCCCGCCAACGTGTCTTGGCCCACGCACTCATGTCATGTTGGTGTTGGGAGGCCACTTTTTAAGTAGCACAAGGCACCTAGCTCGCAGCAAGGTGTCCGAACCAAAGAAGCGGCTGCAGTGGTGCAAACGGGGCGGAAACGGCGGGAAAAAGCCACGGGGGCACGAATTGAGGCACGCCCTCGAATTTGAGACGAGTCACGGCCCCATTCGCCCGCGCAATGGCTCGCCAACGCCCGGTCTTTTGCACCACATCAGGTTACCCCAAGCCAAACCTTTGTGTTAAAAAGCTTAACATATTATACCGAACGTAGGTTTGGGCGGGCTTGCTCCGTCTGTCCAAGGCAACATTTATATAAGGGTCTGCATCGCCGGCTCAATTGAATCTTTTTTCTTCTTCTCTTCTCTATATTCATTCTTGAATTAAACACACATCAACATGGCCATCAAAGTCGGTATTAACGGATTCGGGCGAATCGGACGAATTGTGAGTACCATAGAAGGTGATGGAAACATGACCCAACAGAAACAGATGACAAGTGTCATCGACCCACCAGAGCCCAATTGAGCTCATACTAACAGTCGACAACCTGTCGAACCAATTGATGACTCCCCGACAATGTACTAACACAGGTCCTGCCC
modifications: misc_feature: Promoter GPDIN
On to B2, for which the “transcription activity relative to the TEF promoter” value with GUS mRNA is approximately 4.4 times. The “transcriptional activity relative to the TEF promoter” value in the series with GUS mRNA (final day of the 4 day experiment in HGM) is reported as approximately 2.6 times. Moreover, the “Activity “Rank”” value in series [2] was 3.
